Patent US20250243286A1 (SIXPEAKS BIO, published 2025)
Where two headings read alike, the source gives them in different places. Blank lines part the entries; values can stand above or below the binder they belong to.

Tests used:
human ActRIIA [1] = biological target: T1, human ActRIIA (human, UniProt P27037 20-135, limits assumed); assay: MSD-SET
T1 construct: antigen in MSD-SET; also called ACVR2A; ActR2A

human ActRIIB [2] = biological target: T2, human ActRIIB (human, UniProt Q13705 19-137, limits assumed); assay: MSD-SET
T2 construct: antigen in MSD-SET; also called ACVR2B; ActR2B
T2 sequence: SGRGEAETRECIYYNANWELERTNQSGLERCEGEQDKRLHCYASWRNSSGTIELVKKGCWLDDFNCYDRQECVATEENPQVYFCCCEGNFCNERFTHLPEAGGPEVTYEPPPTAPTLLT

human ActRIIA [3] = biological target: T1, human ActRIIA; assay: MSD-SET; remark: listed apart in the source
human ActRIIB [4] = biological target: T2, human ActRIIB; assay: MSD-SET; remark: listed apart in the source
human ActRIIA [5] = biological target: T1, human ActRIIA; assay: MSD-SET, preliminary
human ActRIIB [6] = biological target: T2, human ActRIIB; assay: MSD-SET, preliminary
[7] = biological target: T3, ActRIIA and ActRIIB (on TGFB/SMAD SBE Reporter HEK293 cells) (human); assay: cell-based or functional assay
human ActRIIA [8] = biological target: T1, human ActRIIA; assay: MSD-SET; remark: listed apart in the source
human ActRIIB [9] = biological target: T2, human ActRIIB; assay: MSD-SET; remark: listed apart in the source
[10] = biological target: T3, ActRIIA and ActRIIB (on TGFB/SMAD SBE …); assay: cell-based or functional assay; remark: listed apart in the source
human ActRIIA [11] = biological target: T1, human ActRIIA; assay: MSD-SET, Fab KD over IgG KD
human ActRIIB [12] = biological target: T2, human ActRIIB; assay: MSD-SET, Fab KD over IgG KD
human ActRIIB [13] = biological target: T2, human ActRIIB; assay: affinity measurement
human ActRIIA [14] = biological target: T1, human ActRIIA; assay: MSD-SET; remark: listed apart in the source
human ActRIIB [15] = biological target: T2, human ActRIIB; assay: MSD-SET; remark: listed apart in the source
human ActRIIA [16] = biological target: T1, human ActRIIA; assay: MSD-SET; remark: listed apart in the source
human ActRIIB [17] = biological target: T2, human ActRIIB; assay: MSD-SET; remark: listed apart in the source
[18] = biological target: T3, ActRIIA and ActRIIB (on TGFB/SMAD SBE …); assay: cell-based or functional assay; remark: listed apart in the source

T1 sequence (P27037 20-135 limits assumed): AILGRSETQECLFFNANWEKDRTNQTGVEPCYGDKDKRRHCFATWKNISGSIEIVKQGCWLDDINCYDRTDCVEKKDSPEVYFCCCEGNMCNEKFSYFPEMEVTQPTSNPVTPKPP

Kd (human ActRIIA [1]): 0.067 nM | Kd (human ActRIIB [2]): 0.0013 nM | Kd (human ActRIIA [3]): 0.142 nM | Kd (human ActRIIB [4]): 0.0167 nM | Kd (human ActRIIA [5]): 0.142 nM | Kd (human ActRIIB [6]): 0.0167 nM | IC50, Activin SMAD RGA [7]: 0.171 nM | IC50, Myostatin SMAD RGA [7]: 0.181 nM | IC50, myostatin inhibition (SMAD RGA) [7]: 0.171 nM | IC90, Activin SMAD RGA [7]: 2.88 nM | IC90, Myostatin SMAD RGA [7]: 1.94 nM
B1: Antibody Bebballesgmias (antibody, V domains shown)
VH: QVQLVQSGAEVKKPGSSVKVSCKASGYKFTSSYINWVRQAPGQGLEWMGTINPVSGSTSYAQKFQGRVTITADTSTSTAYMELSSLRSEDTAVYYCARGGWFDYWGQGTLVTVSS
VL: QSALTQPRSVSGSPGQSVTISCTGTSSDVGSYNYVNWYQQHPGKAPKLMIYGVSKRPRGVPDRFSGSKSGNTASLTISGLQAEDEADYYCGTFAGGSYYGVFGGGTKLTVL
notes: full-length IgG

Kd (human ActRIIA [8]): 0.145 nM | Kd (human ActRIIB [9]): 0.021 nM | IC50, Activin SMAD RGA [10]: 1.58 nM | IC50, Myostatin SMAD RGA [10]: 2.09 nM | IC50 fold difference (Fab:IgG), Activin SMAD RGA [10]: 7.4 fold | IC50 fold difference (Fab:IgG), Myostatin SMAD RGA [10]: 7.9 fold | Fold difference (Fab:IgG) (human ActRIIA [11]): 5.2 fold | Fold difference (Fab:IgG) (human ActRIIB [12]): 4.4 fold
B2: Biiramooscht Fab (Fab, V domains shown)
VH: QVQLVQSGAEVKKPGASVKVSCKASGYTFTSSYINWVRQAPGQGLEWMGTINPVSGSTSYAQKFQGRVTMTRDTSISTAYMELSRLRSDDTAVYYCARGGWFDYWGQGTLVTVSS
VL: QSALTQPASVSGSPGQSITISCTGTSSDVGSYNYVNWYQQHPGKAPKLMIYGVSKRESGVSNRFSGSKSGNTASLTISGLQAEDEADYYCGTFAGGAYYGVFGGGTKLTVL
notes: Fab

Kd (human ActRIIA [8]): 0.157 nM | Kd (human ActRIIB [9]): 0.006 nM | IC50, Activin SMAD RGA [10]: 0.4 nM | IC50, Myostatin SMAD RGA [10]: 0.78 nM | IC50 fold difference (Fab:IgG), Activin SMAD RGA [10]: 4.6 fold | IC50 fold difference (Fab:IgG), Myostatin SMAD RGA [10]: 5.1 fold | Fold difference (Fab:IgG) (human ActRIIA [11]): 3.8 fold | Fold difference (Fab:IgG) (human ActRIIB [12]): 1.1 fold
B3: Rippla Fab (Fab, V domains shown)
VH: QVQLVQSGAEVRKPGASVKVSCKASGYTFTSSYINWVRQAPGQGLEWMGTINPVSGSTSYAQKFQGRVTMTRDTSISTAYMELSRLRSDDTAVYYCARGGWFDYWGQGTLVTVSS
VL: QSALTQPASVSGSPGQSITISCTGTSSDVGSYNRVNWYQQHPGKAPKLMIYGVSKRESGVSNRFSGSKSGNTASLTISGLQAEDEADYYCGTFAGGRYYGVFGGGTKLTVL
notes: Fab

binding result (human ActRIIB [13]): binds | IC50, Activin SMAD RGA [7]: 0.18 nM | IC50, Myostatin SMAD RGA [7]: 0.0875 nM | IC90, Activin SMAD RGA [7]: 3.71 nM | IC90, Myostatin SMAD RGA [7]: 1.23 nM
B4: Antibody Backstoikäs (antibody, V domains shown)
VH: QVQLVQSGAEVKKPGASVKVSCKASGYKFTSSYINWVRQAPGQGLEWMGTINPVSGSTSYAQKFQGRVTMTRDTSISTAYMELSRLRSDDTAVYYCARGGWFDYWGQGTLVTVSS
VL: QSALTQPASVSGSPGQSITISCTGTSSDVGSYNYVNWYQQHPGKAPKLMIYGVSKRPRGVSNRFSGSKSGNTASLTISGLQAEDEADYYCGTFAGGSYYGVFGGGTKLTVL
notes: full-length IgG

Kd (human ActRIIA [8]): 0.114 nM | Kd (human ActRIIB [9]): 0.026 nM | IC50, Activin SMAD RGA [10]: 1.21 nM | IC50, Myostatin SMAD RGA [10]: 2.32 nM | IC50 fold difference (Fab:IgG), Activin SMAD RGA [10]: 2.8 fold | IC50 fold difference (Fab:IgG), Myostatin SMAD RGA [10]: 4.8 fold | Fold difference (Fab:IgG) (human ActRIIA [11]): 3.9 fold | Fold difference (Fab:IgG) (human ActRIIB [12]): 3.1 fold
B5: Fasnetsküchla Fab (Fab, V domains shown)
VH: QVQLVQSGAEVKKPGASVKVSCKASGYTFTSSYINWVRQAPGQGLEWMGTINAVSGSTSYAQKFQGRVTMTRDTSISTAYMELSRLRSDDTAVYYCARGGWFDYWGQGTLVTVSS
VL: QSALTQPASVSGSPGQSITISCTGTSSDVGSANYVNWYQQHPGKAPKPMIYGVSRRPSGVSNRFSGSKSGNTASLTISGLQAEDEADYYCGTFAGGKYYGVFGGGTKLTVL
notes: Fab

Kd (human ActRIIA [14]): 0.02 nM | Kd (human ActRIIB [15]): 0.01 nM | Kd (human ActRIIA [8]): 0.02 nM | Kd (human ActRIIB [9]): 0.01 nM | Kd (human ActRIIA [1]): 0.0232 nM | Kd (human ActRIIB [2]): 0.0082 nM | IC50, Myostatin SMAD RGA [7]: 0.653 nM | IC90, Activin SMAD RGA [7]: 2.51 nM | IC90, Myostatin SMAD RGA [7]: 5.59 nM | IC50, Activin SMAD RGA [10]: 0.43 nM | IC50, Myostatin SMAD RGA [10]: 0.55 nM
B6: Antibody Ochsamaulsalat (antibody, V domains shown)
VH: QVQLVQSGAEVKKPGASVKVSCKASGYTFTSSYINWVRQAPGQGLEWMGTINAVSGSTSYAQKFQGRVTMTRDTSISTAYMELSRLRSDDTAVYYCARGGWFDYWGQGTLVTVSS
VL: QSALTQPASVSGSPGQSITISCTGTSSDVGSRNYVNWYQQHPGKAPKLMIYGVSKRESGVSNRFSGSKSGNTASLTISGLQAEDEADYYCGTFAGGDYYGVFGGGTKLTVL
notes: full-length IgG

Kd (human ActRIIA [3]): 0.0404 nM | Kd (human ActRIIB [4]): 0.0129 nM | Kd (human ActRIIA [16]): 0.0404 nM | Kd (human ActRIIB [17]): 0.0129 nM | Kd (human ActRIIB [6]): 0.0293 nM | IC50, Myostatin SMAD RGA [7]: 0.75 nM | IC50 fold difference to bimagrumab, Myostatin SMAD RGA [7]: 0.7 fold | IC90, Activin SMAD RGA [7]: 5.34 nM | IC90, Myostatin SMAD RGA [7]: 14.7 nM | IC90 fold difference to bimagrumab, Activin SMAD RGA [7]: 1.8 fold | IC90 fold difference to bimagrumab, Myostatin SMAD RGA [7]: 0.9 fold | IC95, Activin SMAD RGA [7]: 14.2 nM | IC95, Myostatin SMAD RGA [7]: 41.5 nM | IC95 fold difference to bimagrumab, Activin SMAD RGA [7]: 2.7 fold | IC95 fold difference to bimagrumab, Myostatin SMAD RGA [7]: 1.3 fold | IC99, Activin SMAD RGA [7]: 124 nM | IC99, Myostatin SMAD RGA [7]: 425 nM | IC99 fold difference to bimagrumab, Activin SMAD RGA [7]: 6.7 fold | IC99 fold difference to bimagrumab, Myostatin SMAD RGA [7]: 6.3 fold | IC50, Activin SMAD RGA [18]: 0.46 nM | IC50 fold difference to bimagrumab, Activin SMAD RGA [18]: 0.7 fold | IC90, Activin SMAD RGA [18]: 5.09 nM | IC90 fold difference to bimagrumab, Activin SMAD RGA [18]: 0.8 fold | IC95, Activin SMAD RGA [18]: 12.8 nM | IC95 fold difference to bimagrumab, Activin SMAD RGA [18]: 39.3 fold | IC99, Activin SMAD RGA [18]: 99 nM | IC99 fold difference to bimagrumab, Activin SMAD RGA [18]: 305 fold
B7: Antibody Schwardamaga (antibody, V domains shown)
VH: QVQLVQSGAEVKKPGSSVKVSCKASGYTFTSSYINWVRQAPGQGLEWMGTINAVSGSTSYAQKFQGRVTITADTSTSTAYMELSSLRSEDTAVYYCARGGWFDYWGQGTLVTVSS
VL: QSALTQPRSVSGSPGQSVTISCTGTSSDVGSANYVNWYQQHPGKAPKPMIYGVSRRPSGVPDRFSGSKSGNTASLTISGLQAEDEADYYCGTFAGGKYYGVFGGGTKLTVL
notes: full-length IgG

Kd (human ActRIIA [3]): 0.0342 nM | Kd (human ActRIIB [4]): 0.0055 nM | Kd (human ActRIIA [16]): 0.0342 nM | Kd (human ActRIIB [17]): 0.0055 nM | Kd (human ActRIIA [5]): 0.0345 nM | Kd (human ActRIIB [6]): 0.0508 nM | IC50, Myostatin SMAD RGA [7]: 0.13 nM | IC50 fold difference to bimagrumab, Myostatin SMAD RGA [7]: 4.3 fold | IC90, Activin SMAD RGA [7]: 2.16 nM | IC90, Myostatin SMAD RGA [7]: 6.63 nM | IC90 fold difference to bimagrumab, Activin SMAD RGA [7]: 4.3 fold | IC90 fold difference to bimagrumab, Myostatin SMAD RGA [7]: 2 fold | IC95, Activin SMAD RGA [7]: 8.86 nM | IC95, Myostatin SMAD RGA [7]: 35 nM | IC95 fold difference to bimagrumab, Activin SMAD RGA [7]: 4.3 fold | IC95 fold difference to bimagrumab, Myostatin SMAD RGA [7]: 1.6 fold | IC99, Activin SMAD RGA [7]: 200 nM | IC99, Myostatin SMAD RGA [7]: 2000 nM | IC99 fold difference to bimagrumab, Activin SMAD RGA [7]: 4.1 fold | IC99 fold difference to bimagrumab, Myostatin SMAD RGA [7]: 1.3 fold | IC50, Activin SMAD RGA [18]: 0.16 nM | IC50 fold difference to bimagrumab, Activin SMAD RGA [18]: 2 fold | IC90, Activin SMAD RGA [18]: 1.81 nM | IC90 fold difference to bimagrumab, Activin SMAD RGA [18]: 0.3 fold | IC95, Activin SMAD RGA [18]: 4.84 nM | IC95 fold difference to bimagrumab, Activin SMAD RGA [18]: 14.9 fold | IC99, Activin SMAD RGA [18]: 19.3 nM | IC99 fold difference to bimagrumab, Activin SMAD RGA [18]: 59.5 fold
B8: Antibody Soidawürstle (antibody, V domains shown)
VH: QVQLVQSGAEVRKPGSSVKVSCKASGYTFTSSYINWVRQAPGQGLEWMGTINPVSGSTSYAQKFQGRVTITADTSTSTAYMELSSLRSEDTAVYYCARGGWFDYWGQGTLVTVSS
VL: QSALTQPRSVSGSPGQSVTISCTGTSSDVGSYNRVNWYQQHPGKAPKLMIYGVSKRESGVPDRFSGSKSGNTASLTISGLQAEDEADYYCGTFAGGRYYGVFGGGTKLTVL
notes: full-length IgG; also called Soidawüsrstel
